Test results taken from paper PMC7949053, “Natural variants modify Klebsiella pneumoniae carbapenemase (KPC) acyl–enzyme conformational dynamics to extend antibiotic resistance” (The Journal of Biological Chemistry, 2020).

Columns and labels:
[1] = system: CC(C)(O/N=C(\C(=O)N[C@@H]1C(=O)N2C(C(=O)[O-])=C(C[n+]3ccccc3)CS[C@H]12)c1csc(N)n1)C(=O)O; assay: purified protein; conditions: 10 mM HEPES pH 7.5, 150 mM NaCl, 25 °C, standard error in parentheses
[2] = system: CO/N=C(\C(=O)N[C@@H]1C(=O)N2C(C(=O)O)=C(COC(C)=O)CS[C@H]12)c1csc(N)n1; assay: purified protein; conditions: 10 mM HEPES pH 7.5, 150 mM NaCl, 25 °C, standard error in parentheses, n = 3

Substance: KPC-2 (Klebsiella pneumoniae)
- Km [1]: 530 (70) μM
- kcat [1]: 1.9 s⁻¹
- kcat/Km [1]: 3500 M⁻¹ s⁻¹
- Km [2]: 200 (29) μM
- kcat [2]: 76 s⁻¹
- kcat/Km [2]: 380000 M⁻¹ s⁻¹
